Results from patent US20240252614A1.

Key:
Details in all cases: remark: other sources report otherwise
[1] = target: hMPV A F WT Control (hMPV A), Q6WB98; assay: BLI, no stress
hMPV043 (hMPV A), Q6WB98 = assay: BLI, no stress
hMPV044 (hMPV A), Q6WB98 = assay: BLI, no stress
hMPV046 (hMPV A), Q6WB98 = assay: BLI, no stress
hMPV047 (hMPV A), Q6WB98 = assay: BLI, no stress
hMPV048 (hMPV A), Q6WB98 = assay: BLI, no stress
hMPV049 (hMPV A), Q6WB98 = assay: BLI, no stress
hMPV050 (hMPV A), Q6WB98 = assay: BLI, no stress
hMPV053 (hMPV A), Q6WB98 = assay: BLI, no stress
hMPV054 (hMPV A), Q6WB98 = assay: BLI, no stress
hMPV055 (hMPV A), Q6WB98 = assay: BLI, no stress
hMPV059 (hMPV A), Q6WB98 = assay: BLI, no stress
hMPV060 (hMPV A), Q6WB98 = assay: BLI, no stress
hMPV061 (hMPV A), Q6WB98 = assay: BLI, no stress
hMPV062 (hMPV A), Q6WB98 = assay: BLI, no stress
hMPV063 (hMPV A), Q6WB98 = assay: BLI, no stress
hMPV066 (hMPV A), Q6WB98 = assay: BLI, no stress
hMPV068 (hMPV A), Q6WB98 = assay: BLI, no stress
hMPV069 (hMPV A), Q6WB98 = assay: BLI, no stress
hMPV071 (hMPV A), Q6WB98 = assay: BLI, no stress
hMPV075 (hMPV A), Q6WB98 = assay: BLI, no stress
hMPV077 (hMPV A), Q6WB98 = assay: BLI, no stress
[2] = target: hMPV A F WT Control (hMPV A), Q6WB98; assay: BLI, no stress; remark: listed apart in the source
hMPV078 (hMPV A), Q6WB98 = assay: BLI, no stress
hMPV079 (hMPV A), Q6WB98 = assay: BLI, no stress
hMPV081 (hMPV A), Q6WB98 = assay: BLI, no stress
hMPV082 (hMPV A), Q6WB98 = assay: BLI, no stress
hMPV083 (hMPV A), Q6WB98 = assay: BLI, no stress
hMPV084 (hMPV A), Q6WB98 = assay: BLI, no stress
hMPV085 (hMPV A), Q6WB98 = assay: BLI, no stress
hMPV086 (hMPV A), Q6WB98 = assay: BLI, no stress
hMPV087 (hMPV A), Q6WB98 = assay: BLI, no stress
hMPV088 (hMPV A), Q6WB98 = assay: BLI, no stress
hMPV089 (hMPV A), Q6WB98 = assay: BLI, no stress
hMPV090 (hMPV A), Q6WB98 = assay: BLI, no stress
hMPV097 (hMPV A), Q6WB98 = assay: BLI, no stress
[3] = target: hMPV A F WT Control (hMPV A), Q6WB98; assay: BLI, 68C stress
hMPV080 (hMPV A), Q6WB98 = assay: BLI, 68C stress

B1: MPE8 mAb (antibody, V domains shown)
VH: EVQLVESGGGLVKPGGSLRLSCAASGFTFSSYSMNWVRQAPGKGLEWVSSISASSSYSDYADSAKGRFTISRDNAKTSLFLQMNSLRAEDTAIYFCARARATGYSSITPYFDIWGQGTLVTVSS
VL: QSVVTQTPSVSGAPGQRVTISCTGSSSNIGAGYDVHWYQQLPGTAPKLLIYDNNNRPSGVPDRFSASKSGTSASLAITGLQAEDEADYYCQSYDRNLSGVFGTGTKVTVL
Q: How did the Response Shift [1] turn out when B1 was run?
A: 0.69 nm

Q: And the Response Shift (hMPV043 (hMPV A), Q6WB98)?
A: 0.558 nm

Q: And the Response Shift (hMPV044 (hMPV A), Q6WB98)?
A: 0.72 nm

Q: And the Response Shift (hMPV046 (hMPV A), Q6WB98)?
A: 0.603 nm

Q: And the Response Shift (hMPV047 (hMPV A), Q6WB98)?
A: 0.259 nm

Q: And the Response Shift (hMPV048 (hMPV A), Q6WB98)?
A: 0.596 nm

Q: And the Response Shift (hMPV049 (hMPV A), Q6WB98)?
A: 0.672 nm

Q: And the Response Shift (hMPV050 (hMPV A), Q6WB98)?
A: 0.641 nm

Q: What about the Response Shift (hMPV053 (hMPV A), Q6WB98) of the same binder?
A: 0.624 nm

Q: And the Response Shift (hMPV054 (hMPV A), Q6WB98)?
A: 0.73 nm

Q: What about the Response Shift (hMPV055 (hMPV A), Q6WB98) of the same binder?
A: 0.581 nm

Q: What about the Response Shift (hMPV059 (hMPV A), Q6WB98) of the same binder?
A: 0.666 nm

Q: What about the Response Shift (hMPV060 (hMPV A), Q6WB98) of the same binder?
A: 0.84 nm

Q: What about the Response Shift (hMPV061 (hMPV A), Q6WB98) of the same binder?
A: 0.813 nm

Q: What about the Response Shift (hMPV062 (hMPV A), Q6WB98) of the same binder?
A: 0.713 nm

Q: And the Response Shift (hMPV063 (hMPV A), Q6WB98)?
A: 0.849 nm

Q: And the Response Shift (hMPV066 (hMPV A), Q6WB98)?
A: 0.779 nm

Q: What about the Response Shift (hMPV068 (hMPV A), Q6WB98) of the same binder?
A: 0.738 nm

Q: And the Response Shift (hMPV069 (hMPV A), Q6WB98)?
A: 0.651 nm

Q: What about the Response Shift (hMPV071 (hMPV A), Q6WB98) of the same binder?
A: 0.804 nm

Q: And the Response Shift (hMPV075 (hMPV A), Q6WB98)?
A: 0.777 nm

Q: What about the Response Shift (hMPV077 (hMPV A), Q6WB98) of the same binder?
A: 0.706 nm

Q: And the Response Shift [2]?
A: 0.926 nm

Q: And the Response Shift (hMPV078 (hMPV A), Q6WB98)?
A: 0.955 nm

Q: What about the Response Shift (hMPV079 (hMPV A), Q6WB98) of the same binder?
A: 0.887 nm

Q: What about the Response Shift (hMPV081 (hMPV A), Q6WB98) of the same binder?
A: 0.955 nm

Q: And the Response Shift (hMPV082 (hMPV A), Q6WB98)?
A: 0.949 nm

Q: What about the Response Shift (hMPV083 (hMPV A), Q6WB98) of the same binder?
A: 0.805 nm

Q: What about the Response Shift (hMPV084 (hMPV A), Q6WB98) of the same binder?
A: 0.924 nm

Q: And the Response Shift (hMPV085 (hMPV A), Q6WB98)?
A: 0.877 nm

Q: What about the Response Shift (hMPV086 (hMPV A), Q6WB98) of the same binder?
A: 0.834 nm

Q: And the Response Shift (hMPV087 (hMPV A), Q6WB98)?
A: 0.979 nm

Q: What about the Response Shift (hMPV088 (hMPV A), Q6WB98) of the same binder?
A: 0.974 nm

Q: And the Response Shift (hMPV089 (hMPV A), Q6WB98)?
A: 0.959 nm

Q: And the Response Shift (hMPV090 (hMPV A), Q6WB98)?
A: 0.903 nm

Q: What about the Response Shift (hMPV097 (hMPV A), Q6WB98) of the same binder?
A: 0.918 nm

Q: What about the Response Shift [3] of the same binder?
A: 0.025 nm

Q: And the Response Shift (hMPV080 (hMPV A), Q6WB98)?
A: -0.075 nm
